Reference: patent US7268212B2, “Ligand of G protein-coupled receptor protein and DNA thereof” (Takeda Pharmaceutical Company Limited, priority 2001, dated 2007)
Non-standard residues stand in square brackets, D forms with d. Residues, ends and D or L forms follow the SMILES beside them. No end group written: not given here. Trp(6-Br) = N[C@@H](Cc1c[nH]c2cc(Br)ccc12)C(=O)O; dTrp(6-Br) = N[C@H](Cc1c[nH]c2cc(Br)ccc12)C(=O)O

biological target: T1, bovine GPR7 (Bos taurus, UniProt Q8MJV3); assay: Intracellular cAMP production suppression activity on bovine GPR7-expressed CHO cells; type: cell-based; details: forskolin-promoted cAMP production; receptor-expressed CHO cells; read-out: IC50 (nM) bovine GPR7, cAMP production inhibition
T1 construct: expressed in transfected cells; host or cells: CHO cells
T1 sequence (Q8MJV3 1-331): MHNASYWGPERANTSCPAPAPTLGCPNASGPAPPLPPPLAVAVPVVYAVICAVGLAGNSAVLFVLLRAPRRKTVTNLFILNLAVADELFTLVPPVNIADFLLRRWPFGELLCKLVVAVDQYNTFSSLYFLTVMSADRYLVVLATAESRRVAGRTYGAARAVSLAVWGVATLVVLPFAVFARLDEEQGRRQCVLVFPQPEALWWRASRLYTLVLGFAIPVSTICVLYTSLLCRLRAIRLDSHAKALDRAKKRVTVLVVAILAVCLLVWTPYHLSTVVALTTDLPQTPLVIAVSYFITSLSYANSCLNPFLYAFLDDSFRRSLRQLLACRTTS
Protocol: (§1) The intracellular cAMP production suppression activity of peptides associated with various GPR7 ligands on CHO cells, in which human GPR7, bovine GPR8, human GPR8, human GPR8, bovine GPR8 and rat GPR7 were expressed, was examined. […] An assay buffer was prepared by adding 20 mM HEPES, pH7.4, 0.1% bovine serum albumin and 0.2 mM 3-isobutyl-1-methylxanthine (Sigma) to Hanks' Balanced Salt Solution (Gibco BRL). The plate incubated overnight was first washed twice with 150 μl of the assay buffer, and then exchanged with 150 μl of the assay buffer, followed by incubation for 30 minutes at 37° C. in 100% air. By adding 4 μM forskolin to the assay buffer, a buffer for sample dilution was prepared and the stock solution (10^−2 M of 10^−3 M) was diluted with the buffer thus obtained to prepare sample solutions in final concentrations of 10^−6 M, 10^−7 M, 10^−8 M, 10^−9 M and 10^−10 M. The plate incubated with the assay buffer for 30 minutes was taken out. After washing twice with the assay buffer, 50 μl of the assay buffer and then 50 μl of the sample solution were added thereto. Each sample was assayed in triplet. […] A difference between the maximum cAMP level and the cAMP level when each sample was added was calculated and the percentage of cAMP production level promoted by forskolin was worked out, which was made the cAMP production inhibition rate.

| Molecule | IC50 |
| --- | --- |
| WYKPAAGSHHYSVGRAAGLLSSFHRFPST [Trp1-rat GPR7L(29)] | 1.2 nM |

biological target: T2, GPR7 (Homo sapiens, UniProt P48145); assay: not given; details: reported by O'Dowd, B. F. et al.; cited from earlier work
T2 sequence (P48145 1-328): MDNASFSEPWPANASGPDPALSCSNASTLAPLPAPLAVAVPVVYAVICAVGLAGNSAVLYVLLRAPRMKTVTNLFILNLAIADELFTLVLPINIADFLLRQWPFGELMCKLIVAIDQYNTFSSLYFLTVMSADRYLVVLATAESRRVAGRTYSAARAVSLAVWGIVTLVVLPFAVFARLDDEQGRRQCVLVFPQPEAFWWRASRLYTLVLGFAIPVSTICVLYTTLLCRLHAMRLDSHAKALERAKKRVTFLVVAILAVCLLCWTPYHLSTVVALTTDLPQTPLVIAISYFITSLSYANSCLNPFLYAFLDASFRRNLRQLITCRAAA

| Molecule | inhibition of [3H] bremazocine binding to the membrane fraction of GPR7 |
| --- | --- |
| β-endorphin | inhibited |

biological target: T2, GPR7; assay: Test on binding inhibition of various peptides against human GPR7-expressed CHO cell membrane fraction; set-up: The synthetic primers were constructed so as to amplify the gene in the region to be translated to its receptor protein; expressed in transfected cells; host or cells: CHO cells, membrane fraction; details: iodine-labeled hGPR7L-23; human GPR7-expressed CHO cell membrane fraction 1 μg/well; room temperature 1.5 hour
Protocol: A mixture of 20 μl of hGPR7L-23 (SEQ ID NO:1) (0.1 mM or 1 mM), 20 μl of lactoperoxidase (Sigma; prepared using 10 μg/ml and 0.1M HEPES-NaOH pH7.0), 20 μl of Idoine-125 (manufactured by Amersham, MS-30, 74 MBq), 20 μl of 0.005% hydrogen peroxide (manufactured by Wako Pure Chemical Industries, Ltd.) was allowed to stand at room temperature for 20 to 30 minutes. Then, 600 μl of 0.1% TFA was added to the mixture. The mixture was applied to reverse phase HPLC for separation and the peaks of the two'labeled products were fractionated in a tube charged with 1 mL of DMSO. Immediately, the fraction was stored on ice and an aliquot was provided for measurement of the radioactivity with a γ-counter. The remaining preparation was dispensed and stored at −30° C.
Human GPR7-expressed CHO cells were cultured in a flask. The flask was washed with 5 mM EDTA/PBS to strip the cells off. The cells were stripped off with 5 mM EDTA/PBS and centrifuged for recovery. The recovered cells were suspended in 25 mL of a buffer for preparing membrane fraction (50 mM Tris-HCl, pH7.5, 5 mM EDTA, 0.1% bovine serum albumin (manufactured by Sigma), 0.5 mM PMSF (manufactured by Wako Pure Chemical Industries, Ltd.), 20 μg/mL leupeptin (manufactured by Peptide Research Institute), 0.1 μg/mL pepstatin A (manufactured by Peptide Research Institute) and 4 μg/mL E-64 (manufactured by Peptide Research Institute)), followed by homogenization on ice using a polytron (12,000 rpm, 15 seconds×3 times). The homogenate was centrifuged at 4° C. under 1,000 g for 10 minutes with a high speed cooling centrifuge to recover the supernatant. […] The pellets were recovered and suspended in a small quantity of the buffer for preparing membrane fractions. […]
Using the assay buffer, the human GPR7-expressed CHO cell membrane fraction was diluted in a final concentration of 1 μg/well and iodine-labeled hGPR7L-23 (SEQ ID NO:1) was diluted in a final concentration of […]. […] After 50 μl of a liquid scintillator was dispensed thereto, the radioactivity was counted on a Top Count (Packard) and the data was analyzed in triplet (FIG. 33). […]

| Molecule | IC50 |
| --- | --- |
| CC(C)C[C@H](NC(=O)CNC(=O)[C@H](C)NC(=O)[C@H](C)NC(=O)[C@H](CCCNC(=N)N)NC(=O)CNC(=O)[C@@H](NC(=O)[C@H](CO)NC(=O)[C@H](Cc1ccc(O)cc1)NC(=O)[C@H](Cc1ccc(O)cc1)NC(=O)CNC(=O)[C@H](CCC(N)=O)NC(=O)CNC(=O)[C@H](C)NC(=O)[C@@H](NC(=O)[C@@H]1CCCN1C(=O)[C@H](CCCCN)NC(=O)[C@H](Cc1ccc(O)cc1)NC(=O)[C@@H](N)Cc1c[nH]c2cc(Br)ccc12)[C@@H](C)O)C(C)C)C(=O)N[C@@H](CC(C)C)C(=O)N[C@@H](CO)C(=O)NCC(=O)N[C@@H](Cc1ccccc1)C(=O)N[C@@H](Cc1c[nH]cn1)C(=O)N[C@@H](CCCNC(=N)N)C(=O)N[C@@H](CO)C(=O)N1CCC[C@H]1C(=O)N[C@@H](Cc1ccc(O)cc1)C(=O)N[C@@H](C)C(=O)O [LTrp(6Br)1-bovine GPR7L(29)] (H-[Trp(6-Br)]YKPTAGQGYYSVGRAAGLLSGFHRSPYA-OH; N-terminus and C-terminus assumed) | 0.34 nM |
| WYKPAAGSHHYSVGRAAGLLSSFHRFPST [Trp1-rat GPR7L(29)] | 0.34 nM |

biological target: T2, GPR7; assay: Intracellular cAMP production suppression activity on human GPR7-expressed CHO cells; type: cell-based; set-up: The synthetic primers were constructed so as to amplify the gene in the region to be translated to its receptor protein; expressed in transfected cells; host or cells: CHO cells, membrane fraction; details: forskolin-promoted cAMP production; receptor-expressed CHO cells; read-out: IC50 (nM) human GPR7, cAMP production inhibition
Protocol: as §1

| Molecule | IC50 |
| --- | --- |
| CC(C)C[C@H](NC(=O)CNC(=O)[C@H](C)NC(=O)[C@H](C)NC(=O)[C@H](CCCNC(=N)N)NC(=O)CNC(=O)[C@@H](NC(=O)[C@H](CO)NC(=O)[C@H](Cc1ccc(O)cc1)NC(=O)[C@H](Cc1ccc(O)cc1)NC(=O)CNC(=O)[C@H](CCC(N)=O)NC(=O)CNC(=O)[C@H](C)NC(=O)[C@@H](NC(=O)[C@@H]1CCCN1C(=O)[C@H](CCCCN)NC(=O)[C@H](Cc1ccc(O)cc1)NC(=O)[C@@H](N)Cc1c[nH]c2cc(Br)ccc12)[C@@H](C)O)C(C)C)C(=O)N[C@@H](CC(C)C)C(=O)N[C@@H](CO)C(=O)NCC(=O)N[C@@H](Cc1ccccc1)C(=O)N[C@@H](Cc1c[nH]cn1)C(=O)N[C@@H](CCCNC(=N)N)C(=O)N[C@@H](CO)C(=O)N1CCC[C@H]1C(=O)N[C@@H](Cc1ccc(O)cc1)C(=O)N[C@@H](C)C(=O)O [LTrp(6Br)1-bovine GPR7L(29)] (H-[Trp(6-Br)]YKPTAGQGYYSVGRAAGLLSGFHRSPYA-OH; N-terminus and C-terminus assumed) | 0.58 nM |
| WYKPAAGSHHYSVGRAAGLLSSFH [Trp1-rat GPR7L(24)] | 0.31 nM |

Biological target: T3, human GPR7 (human)
T3 chain: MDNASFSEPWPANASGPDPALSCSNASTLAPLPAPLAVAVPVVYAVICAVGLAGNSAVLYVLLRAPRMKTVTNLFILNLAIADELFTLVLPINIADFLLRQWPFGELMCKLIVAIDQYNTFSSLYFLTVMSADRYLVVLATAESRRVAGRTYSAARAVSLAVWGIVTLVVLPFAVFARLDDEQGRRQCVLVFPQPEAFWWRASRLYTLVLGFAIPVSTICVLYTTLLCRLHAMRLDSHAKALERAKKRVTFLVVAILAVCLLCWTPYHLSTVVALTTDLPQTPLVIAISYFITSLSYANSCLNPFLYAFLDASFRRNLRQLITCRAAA
Assay: competition, radioligand
Details: not given

| Molecule | IC50 |
| --- | --- |
| WYKHVASPRYHTVGRAAGLLMGL [Trp1-human GPR8L(23)] | 400 pM |
| WYKPAAGHSSYSVGRAAGLLSGL [Trp1-human GPR7L(23)] | 1600 pM |
| [Trp(6-Br)]YKPAAGHSSYSVGRAAGLLSGLRRSPYA [LTrp(6Br)1-human GPR7L(29)] | 320 pM |
| WYKPAAGSHHYSVGRAAGLLSSFHRFPST [Trp1-rat GPR7L(29)] | 340 pM |
| WYKPAAGHSSYSVGRAAGLLSGLRRSPYA (not fully specified (residue 1); printed as D-Trp(6Br)-Tyr-Lys-Pro-Ala-Ala-Gly-His-Ser-Ser-Tyr-Ser-Val-Gly-Arg-Ala-Ala-Gly-Leu-Leu-Ser-Gly-Leu-Arg-Arg-Ser-Pro-Tyr-Ala) [DTrp(6Br)1-human GPR7L(29)] | 13000 pM |
| [Trp(6-Br)]YKPTAGQGYYSVGRAAGLLSGFHRSPYA [LTrp(6Br)1-bovine GPR7L(29)] | 340 pM |
| WYKPTAGQGYYSVGRAAGLLSGFHRSPYA [Trp1-bovine GPR7L(29)] | 310 pM |
| [dTrp(6-Br)]YKPTAGQGYYSVGRAAGLLSGFHRSPYA [DTrp(6Br)1-bovine GPR7L(29)] | 6100 pM |
| WYKPAAGSHHYSVGRAAGLLSSFH [Trp1-rat GPR7L(24)] | 300 pM |
| WYKPAAGHSSYSVGRAAGLLSGLRRSPYA [Trp1-human GPR7L(29)] | 330 pM |
